The results in this text go back to article PMC10397247.

The target in assay [1] is T1, 4H3905-AA.
T1 chain: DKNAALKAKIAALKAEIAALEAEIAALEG
The assay is described as follows: two-hybrid library CCmax.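 Also: natural log of median RNA to DNA barcode read ratio; higher means stronger binding.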

In assay [2] the target is T2, 4H4038-AA.
T2 chain: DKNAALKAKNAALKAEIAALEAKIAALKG
The assay is described as follows: two-hybrid library CCmax.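 Also: natural log of median RNA to DNA barcode read ratio; higher means stronger binding.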 The following applies: mean of both orientations.

In assay [3] the target is T3, 4H43-AA.
T3 chain: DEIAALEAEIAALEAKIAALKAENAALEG
The assay is described as follows: two-hybrid library CCmax.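 Also: natural log of median RNA to DNA barcode read ratio; higher means stronger binding.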 The following applies: mean of both orientations.

For assay [4], the target named is T4, 4H451-AA.
T4 chain: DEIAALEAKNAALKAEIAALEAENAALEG
The assay is described as follows: two-hybrid library CCmax.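 Also: natural log of median RNA to DNA barcode read ratio; higher means stronger binding.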 The following applies: mean of both orientations.

Assay [5] addresses T5, 4H510-AA.
T5 chain: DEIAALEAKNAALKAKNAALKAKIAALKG
Nature of the assay: two-hybrid library CCmax.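 Also: natural log of median RNA to DNA barcode read ratio; higher means stronger binding.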 The following applies: mean of both orientations.

Assay [6] addresses T6, 4H_APH.
T6 chain: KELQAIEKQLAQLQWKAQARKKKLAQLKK
Nature of the assay: two-hybrid library CCmax.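 Also: natural log of median RNA to DNA barcode read ratio; higher means stronger binding.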 The following applies: mean of both orientations.

The target of assay [7] is T7, 4H_BCR.
T7 chain: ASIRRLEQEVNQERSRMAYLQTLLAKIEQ
The assay is described as follows: two-hybrid library CCmax. The following applies: mean of both orientations.

Assay [8] deals with 4H_GCN4. The assay is described as follows: two-hybrid library CCmax.
In assay [9] the target is GCN2_T. The assay is described as follows: two-hybrid library CCmax.
The target in assay [10] is T8, O11-AA.
T8 chain: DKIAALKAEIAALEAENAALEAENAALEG
The assay is described as follows: two-hybrid library CCmax. The note with it: mean of both orientations.

For assay [11], the target named is T9, O13-AA.
T9 chain: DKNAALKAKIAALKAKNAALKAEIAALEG
The assay is described as follows: two-hybrid library CCmax. The note with it: mean of both orientations.

Assay [12] has as its target T10, O14-AA.
T10 chain: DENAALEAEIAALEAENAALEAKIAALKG
The assay is described as follows: two-hybrid library CCmax. The note with it: mean of both orientations.

Assay [13] addresses T11, 4H3427-bH.
T11 chain: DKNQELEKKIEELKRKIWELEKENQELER
The assay is described as follows: two-hybrid library CCNG1.

Assay [14] addresses T12, 4H346-bH.
T12 chain: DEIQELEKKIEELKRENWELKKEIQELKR
Nature of the assay: two-hybrid library CCNG1.

For assay [15], the target named is T13, 4H3782-bH.
T13 chain: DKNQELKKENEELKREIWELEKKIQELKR
The assay is described as follows: two-hybrid library CCNG1.

The target in assay [16] is T14, 4H3855-bH.
T14 chain: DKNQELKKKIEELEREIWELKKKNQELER
The assay is described as follows: two-hybrid library CCNG1.

For assay [17], the target named is T15, 4H3926-bH.
T15 chain: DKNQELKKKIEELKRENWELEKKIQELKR
Nature of the assay: two-hybrid library CCNG1.

In assay [18] the target is T16, 4H4001-bH.
T16 chain: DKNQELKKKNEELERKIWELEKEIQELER
Nature of the assay: two-hybrid library CCNG1.

Assay [19] concerns the target T17, 4H4073-bH.
T17 chain: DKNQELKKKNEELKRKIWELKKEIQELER
The assay is described as follows: two-hybrid library CCNG1.

Assay [20] concerns the target T18, 4H454-bH.
T18 chain: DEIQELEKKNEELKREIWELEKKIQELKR
The assay is described as follows: two-hybrid library CCNG1.

Assay [21] concerns the target T19, 4H457-bH.
T19 chain: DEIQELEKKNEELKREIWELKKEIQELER
Nature of the assay: two-hybrid library CCNG1.

Assay [22] deals with T20, 4H568-bH.
T20 chain: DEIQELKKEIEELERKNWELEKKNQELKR
The assay is described as follows: two-hybrid library CCNG1.

The target in assay [23] is T21, 4H575-bH.
T21 chain: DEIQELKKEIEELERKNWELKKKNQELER
Nature of the assay: two-hybrid library CCNG1.

Assay [24] has as its target T22, 4H607-bH.
T22 chain: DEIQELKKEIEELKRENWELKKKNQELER
Nature of the assay: two-hybrid library CCNG1.

Assay [25] addresses T23, 4H683-bH.
T23 chain: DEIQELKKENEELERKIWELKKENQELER
The assay is described as follows: two-hybrid library CCNG1.

Assay [26] concerns the target T24, 4H687-bH.
T24 chain: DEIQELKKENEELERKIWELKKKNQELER
Nature of the assay: two-hybrid library CCNG1.

Assay [27] deals with T25, 4H717-bH.
T25 chain: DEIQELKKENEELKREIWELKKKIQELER
The assay is described as follows: two-hybrid library CCNG1.

Assay [28] addresses T26, 4H72-bH.
T26 chain: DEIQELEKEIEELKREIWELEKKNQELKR
The assay is described as follows: two-hybrid library CCNG1.

Assay [29] concerns the target T27, 4H754-bH.
T27 chain: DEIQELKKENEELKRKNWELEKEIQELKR
Nature of the assay: two-hybrid library CCNG1.

In assay [30] the target is T28, 4H780-bH.
T28 chain: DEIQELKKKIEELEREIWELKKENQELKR
The assay is described as follows: two-hybrid library CCNG1.

Assay [31] has as its target T29, 4H780-bN.
T29 chain: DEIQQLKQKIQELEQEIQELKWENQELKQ
Nature of the assay: two-hybrid library CCNG1.

The target of assay [32] is T30, 4H797-bH.
T30 chain: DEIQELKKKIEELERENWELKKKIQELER
The assay is described as follows: two-hybrid library CCNG1.

Assay [33] addresses T31, 4H855-bH.
T31 chain: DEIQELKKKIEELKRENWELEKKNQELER
The assay is described as follows: two-hybrid library CCNG1.

Assay [34] addresses T32, 4H883-bH.
T32 chain: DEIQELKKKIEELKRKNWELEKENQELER
The assay is described as follows: two-hybrid library CCNG1.

The target of assay [35] is T33, 4H908-bH.
T33 chain: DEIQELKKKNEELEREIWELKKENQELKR
The assay is described as follows: two-hybrid library CCNG1.

The target of assay [36] is T34, 4H918-bH.
T34 chain: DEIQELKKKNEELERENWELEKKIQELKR
The assay is described as follows: two-hybrid library CCNG1.

The target of assay [37] is T35, 4H953-bH.
T35 chain: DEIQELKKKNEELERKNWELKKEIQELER
Nature of the assay: two-hybrid library CCNG1.

The target in assay [38] is T36, 4H967-bH.
T36 chain: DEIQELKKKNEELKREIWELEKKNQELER
Nature of the assay: two-hybrid library CCNG1.

For assay [39], the target named is T37, 4H968-bH.
T37 chain: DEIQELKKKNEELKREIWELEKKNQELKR
The assay is described as follows: two-hybrid library CCNG1.

Assay [40] addresses T38, 4H3112-bH.
T38 chain: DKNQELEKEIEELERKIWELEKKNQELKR
Nature of the assay: two-hybrid library CCNG1.

Assay [41] concerns the target T39, 4H953-bA.
T39 chain: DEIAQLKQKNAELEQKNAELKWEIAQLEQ
The assay is described as follows: two-hybrid library CCNG1.

4H_GCN4, sequence (chain, as listed by the source): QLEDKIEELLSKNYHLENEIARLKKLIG

Take DKNAALKAKIAALKAEIAALEAEIAALEG [4H3905-AA]: the interaction score was 1.48 in assay [1]; -0.568 in assay [2]; 0.782 in assay [3]; -1.34 in assay [4]; -1.37 in [5]; -1.84 in assay [6]. The interaction score was -1.61 in [7]; -1.53 in [8]; -1.53 in assay [9]; -1.04 in assay [10]; 0.128 in assay [11]; 0.881 in [12].

DKNQELEKKIEELKRKIWELEKENQELER [4H3427-bH]: the interaction score in assay [13] was 1.13; in assay [14] it was -1.08; in assay [15] it was -0.106; in assay [16] it was 0.0459; in assay [17] it was -0.169; in [18] it was 0.717. Further, the interaction score in [19] is 0.194; in [20], -0.546; in assay [21], -0.153; in assay [22] it was -1.66; in assay [23], 1.53; in [24] it was -1.37. Further, the interaction score in assay [25] was -0.937; in [26], -0.309; in assay [27], -0.417; in assay [28], -0.0186; in assay [29], -0.851; in assay [30], 0.188. Besides, the interaction score in assay [31] was -0.425; in assay [32], -0.726; in assay [33] it was -0.0661; in assay [34] it was -1.42; in assay [35] it was -0.797; in assay [36] it was -0.345. Further, the results for the interaction score in [37], in assay [38] and in assay [39] were -2.3, -1.41 and -0.828, respectively.

Turning to DKIQELKKKNEELKREIWELEKEIQELKR [4H3010-bH], the interaction score in assay [40] is -1.68; in [13], 0.496; in assay [14], -0.345; in assay [17] it was 0.68; in [19], 0.581; in [21] it was 0.658. Moreover, the interaction score in assay [23] was -2.51; in assay [25], 0.161; in [29], -1.06; in assay [30] it was -0.427; in assay [32] it was -1.11; in [33], -0.95. Also, the interaction score in [36] was -2.71; in assay [41] it was -0.817; in assay [37], 0.505; in assay [39] it was 0.0625.
